Data published in US20240269283A1 (NINGBO T MAXIMUM BIOPHARMACEUTICALS, published 2024).
Residue numbers refer to the chain shown, from its start.

Key:
[1] = molecular target: T1, B7H3 on U251 cells (UniProt Q5ZPR3 29-534, limits assumed); assay: flow cytometry on U251 cells (expressing B7H3), MFI against antibody concentration
T1 construct: whole, on cells; also called U251 cells (expressing B7H3)
T1 sequence (looked up): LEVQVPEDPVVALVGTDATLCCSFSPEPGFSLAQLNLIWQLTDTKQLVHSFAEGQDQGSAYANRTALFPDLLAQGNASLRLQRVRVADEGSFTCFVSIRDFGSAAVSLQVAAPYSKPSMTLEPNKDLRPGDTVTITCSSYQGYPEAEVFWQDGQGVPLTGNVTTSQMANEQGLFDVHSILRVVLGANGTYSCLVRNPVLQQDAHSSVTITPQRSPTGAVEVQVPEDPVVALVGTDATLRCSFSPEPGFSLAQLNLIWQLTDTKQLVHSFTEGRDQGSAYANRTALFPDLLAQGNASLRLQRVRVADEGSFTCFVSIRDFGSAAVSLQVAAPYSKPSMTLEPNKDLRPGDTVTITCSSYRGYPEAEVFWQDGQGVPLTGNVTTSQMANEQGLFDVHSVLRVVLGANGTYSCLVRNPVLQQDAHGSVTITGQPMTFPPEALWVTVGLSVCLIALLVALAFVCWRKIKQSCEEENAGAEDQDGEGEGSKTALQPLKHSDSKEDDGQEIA
Method: Recombinant antibodies with different concentrations were incubated with U251 cells (expressing B7H3), and the binding of the antibodies to the cell surface was assayed by the mean fluorescence intensity (MFI) of the cells. From the results shown in FIG. 2, the 1A5 and 1G7 antibodies and the humanized antibodies thereof can effectively bind to the surface of the U251 cells.

[2] = molecular target: T2, B7H3-Fc recombinant protein (human, UniProt Q5ZPR3 29-461); assay: SPR, Biacore 8K, CM5 chip
T2 construct: also called human B7H3 protein; not shown: Fc part of the B7H3-Fc recombinant protein
T2 sequence (looked up): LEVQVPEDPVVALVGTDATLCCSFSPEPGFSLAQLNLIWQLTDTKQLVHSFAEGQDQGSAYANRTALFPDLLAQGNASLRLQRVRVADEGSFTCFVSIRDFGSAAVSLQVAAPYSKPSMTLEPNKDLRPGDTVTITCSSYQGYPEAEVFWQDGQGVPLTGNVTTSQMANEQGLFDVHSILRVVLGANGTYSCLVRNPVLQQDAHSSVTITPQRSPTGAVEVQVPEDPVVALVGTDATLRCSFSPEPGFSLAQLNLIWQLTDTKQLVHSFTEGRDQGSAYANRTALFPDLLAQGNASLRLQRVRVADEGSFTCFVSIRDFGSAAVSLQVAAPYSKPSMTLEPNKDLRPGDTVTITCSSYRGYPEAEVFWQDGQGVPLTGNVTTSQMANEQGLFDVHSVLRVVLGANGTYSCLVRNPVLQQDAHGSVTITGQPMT
Method: The mouse anti-human IgG (Fc) antibody was diluted with the immobilization reagent (sodium acetate, pH 5.0): 950 μL of the immobilization reagent was added to 50 μL of the mouse anti-human IgG (Fc) antibody. The dilution was used for immobilization in eight channels. First, the surface of the CM5 chip was activated for 360 s with EDC and NHS at a flow rate of 10 μL/min. Then, the mouse anti-human IgG (Fc) antibody was injected into the channels (channels 1-8, Fc1,2) at a flow rate of 10 μL/min for about 360 s, with the level of immobilization at about 7000 to 14,000 RU. Finally, the chip was blocked with ethanolamine at 10 μL/min for 420 s.
The human B7H3 protein was diluted 2-fold with the running reagent. The diluted human B7H3 protein was injected into the experimental channels and the reference channels in sequence at a flow rate of 30 μL/min, and corresponding periods of association and dissociation were allowed. The association and dissociation steps were all performed in the running reagent. After each concentration analysis, the chip needed to be regenerated with magnesium chloride at a flow rate of 20 μL/min for 30 s to wash away the ligand and undissociated analyte. For the next concentration analysis, the experimental channels needed to recapture the same amount of ligand.
A KD value was calculated for each sample using Biacore 8K analysis software Biacore Insight Evaluation Software. The reference channels (Fc1) were used for background subtraction.

B1: B7H3 single-domain antibody 1A5 (VHH)
VHH: QAQLVESGGGLVQTGGSLRLSCAASGRIFSNYSVGWFRQAPGKEREFVAAIIWSTGTTNLADPMKGRFTISRDNAKNTVVLQMNSLKPEDTAIYYCAASFKYSGIYGREADFGSWGQGTQVTVSS
notes: Called a single-domain antibody / recombinant antibody; also called 1A5 antibody; anti-B7H3 VHH antibody
For B1, the binding result [1] was “binds”, the Kd [2] was 7.39 nM and the koff [2] was 0.0045 s⁻¹. It also gave a kon [2] of 609000 M⁻¹ s⁻¹.

B2: B7H3 single-domain antibody 1G7 (VHH)
VHH: AVQLVESGGGLVQTGGSLRLSCADSGRIFSNYAMGWFRQAPGKEREFVAAIIGSTGTVNYADSMKGRFTISRDNAKNTVVLQMNSLKPEDTAIYYCAASFRYSGIYGREADFVSWGQGTQVTVSS
notes: Called a single-domain antibody / recombinant antibody; also called 1G7 antibody; anti-B7H3 VHH antibody
B2 was tested, and the “EC50 (read off the curve)” value [1] was ~4 µg/mL, the Kd [2] was 5.38 nM and the koff [2] was 0.00618 s⁻¹. The kon [2] was 1.15e+06 M⁻¹ s⁻¹.

B3: hu1A5 (VHH)
VHH: QVQLVESGGGLVQPGGSLRLSCAASGRIFSNYSVGWFRQAPGKEREFVAAIIWSTGTTYYADSVKGRFTISRDNSKNTLYLQMNSLRAEDTAVYYCAASFKYSGIYGREADFGSWGQGTLVTVSS
notes: a member of the group m3 (humanized antibodies of 1A5 and 1G7); also called humanized antibody of 1A5
B3: binds [1].

B4: hu1G7 (VHH)
VHH: B3 VHH with Q1A, S33A, V34M, W53G, T58V, K101R, G113V
notes: a member of the group m3 (humanized antibodies of 1A5 and 1G7); also called humanized antibody of 1G7
B4: binds [1].
